According to US20040072238A1 (Kyowa Kirin, published 2004):

Assays:
human IGF-II (Peprotech) = molecular target: T1, human IGF-II (Peprotech) (human, UniProt P01344 25-91); assay: far-Western: COS-1 cell lysate on PVDF membrane, probed with 2 µg/ml human IGF-II, detected with anti-human IGF-II monoclonal antibody
T1 construct: Bought reagent; also called IGF-2
Procedure: (§1) To investigate the binding affinity of the proteins encoded by C-hsi13412 and C-kaia397 to IGF, analysis by far-Western (Molecular Cloning—A Laboratory Manual, Third Edition, Cold Spring Harbor Laboratory; Protein Experiment Protocol 1, Shujunsha) was carried out using the cell lysates of COS-1/C-hsi13412 cell line, COS-1/C-kaia397, and, as a control, COS-1/mock cell line obtained in Example 8.
(§2) A 5 μl aliquot of the cell lysates of COS-1/mock cell line, COS-1/C-hsi13412 cell line, and COS-1/C-kaia397 cell line was placed into each lane, and according to Example 14, SDS-PAGE was carried out, transferred to a PVDF membrane, and then blocked. Subsequently, 2 μg/ml human IGF-I (Peprotech), 2 μg/ml human IGF-II (Peprotech), or 2 μg/ml of human insulin (Sigma) diluted with the blocking solution was enclosed with the membrane, and was allowed to react at room temperature overnight. Next, anti-human IGF-I monoclonal antibody (Upstate Biotechnology), anti-human IGF-II monoclonal antibody (Upstate Biotechnology), or anti-human insulin polyclonal antibody (Santa Cruz) were added to each of the membranes to a concentration of 2 μg/ml, and was left standing at room temperature for 1 hour. After the membrane was washed well with Tween-TBS, detection was carried out using peroxiase-labeled rabbit anti-mouse immunoglobulin (DAKO) diluted 2,000 times as the secondary antibody.

human IGF-I (Peprotech) = molecular target: T2, human IGF-I (Peprotech) (human, UniProt P05019 49-118); assay: far-Western: COS-1 cell lysate on PVDF membrane, probed with 2 µg/ml human IGF-I, detected with anti-human IGF-I monoclonal antibody
T2 construct: Bought reagent; also called IGF-1
T2 sequence (P05019 49-118 limits assumed): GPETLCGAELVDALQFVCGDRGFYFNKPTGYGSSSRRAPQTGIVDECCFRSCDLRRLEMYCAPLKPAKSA
Procedure: as §1, §2

human insulin (Sigma) = molecular target: T3, human insulin (Sigma) (human, UniProt P01308 25-54; P01308 90-110); assay: far-Western: COS-1 cell lysate on PVDF membrane, probed with human insulin, detected with anti-human insulin polyclonal antibody
T3 construct: Bought reagent
T3 sequence (P01308 25-54 limits assumed, chain 1 of 2): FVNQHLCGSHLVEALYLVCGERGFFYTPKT
T3 sequence (P01308 90-110 limits assumed, chain 2 of 2): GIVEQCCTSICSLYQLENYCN
Procedure: as §1, §2

T1 sequence (P01344 25-91 limits assumed): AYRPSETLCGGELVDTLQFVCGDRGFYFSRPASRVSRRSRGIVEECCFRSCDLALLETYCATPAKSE

binding result (human IGF-II (Peprotech)): binds | binding result (human IGF-I (Peprotech)): binds | binding result (human insulin (Sigma)): no binding (tested: 2 µg/ml)
B1: protein encoded by C-kaia397 with FLAG marker peptide at the C-terminus, expressed in COS-1 cells (COS-1/C-kaia397 cell line) (other, not shown: small tags and cut ends)
chain: RPSPGPDYLRRGWMRLLAEGEGCAPCRPEECAAPRGCLAGRVRDAGGCCWECANLEGQLCDLDPSAHFYGHCGEQLECRLDTGGDLSRGEVPEPLCACRSQSPLCGSDGHTYSQICRLQEAARARPDANLTVAHPGPCESDWMPLLGHAILRPPAFTPRAPDRVTSI
notes: Tested as COS-1 cell lysate or culture supernatant, not purified
